# Measured values reported in the supplement of paper PMC12042874.
# ± gives the uncertainty stated by the source.
# Assay: amyloid nucleation score (Sup35N fusion, yeast selection) (log enrichment); library NNK1; higher = more nucleation; inactive = no reads after selection
# Method in brief: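 Psi-negative yeast expressed Sup35N fused to peptides of 20 random codons. They were induced 24 hours with 100 μM copper sulfate, grown 7 days at 30°C without adenine and uracil, and their plasmid inserts from input and output were Illumina-sequenced. The nucleation score is the DiMSum log enrichment of output over input reads, centred on the mode score of non-aggregating sequences. Sequences with under 100 input reads were excluded.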
row,Substance,amyloid nucleation score
1,YGKSYVIDGVVWGRQDSWES,-0.748 ± 1.6
2,HFICKLND,0.354 ± 0.34
3,SGLGTNKRSTPWYHSRFEGQ,0.036 ± 0.47
4,MCSSKPSGPLAVN,-1.02 ± 0.52
5,LKCRLLVQTQLSESRGMWTS,0.316 ± 0.7
6,HRISASTLCVIMALRFTSWR,1.42 ± 0.44
7,RRSMGRGVLVKGRGSCREYV,0.251 ± 0.81
8,VPTYGFGLEIFKDFSMNR,-0.926 ± 0.44
9,GFYIDDYES,-1.39 ± 2.7
10,ARGCD,-0.247 ± 1.1
11,FRLVYNNFAIT,-1.78 ± 2.4
12,VTQIKPVRRLGGL,-0.692 ± 0.87
13,YPAPPTNCLRQ,-0.449 ± 0.28
14,SHYTHVFLM,-0.468 ± 0.93
15,ILRPSSFNMVALDLNISLPK,4.82 ± 0.087
16,GWCNMGGANVWKMQVTGPAE,0.948 ± 0.58
17,WIAFERPAYVDSWHLTRNRP,0.109 ± 0.24
18,LQRCAKLYSMSILTYAIIRF,-0.525 ± 0.28
19,KGWKTVVHCRDYGQVNNFGS,2.22 ± 0.14
20,CYVMLINAEND,-0.796 ± 1.4
21,VDLIPLEGVRGAWLQASQRG,0.664 ± 0.49
22,LVCSLTDNYDEE,0.169 ± 0.97

row,Substance,amyloid nucleation score
1,SRIAMS,0.368 ± 1
2,GSNIGQSFWYRRWVQQRTAE,-1.13 ± 2.7
3,DWFAECVFLRRTLESY,-0.601 ± 0.4
4,CSGCQARIWALDRRRRVEVS,0.213 ± 0.69
5,GFLDVALTLSWANHRGDSSV,3.04 ± 0.13
6,IVLPVCDIITEAVLSCNSPG,0.318 ± 0.33
7,NVLTVCCVGLIKSSVSLIEN,8.418 ± 0.065
8,DIIVFSVLFLVTLDGDLWC,0.476 ± 0.97
9,FKDGLCYCNSGVS,-0.452 ± 0.39
10,PLAPMFRLWENSVRYIAKLW,1.22 ± 0.64
11,DGSYTWWAFGSIQRCEGLTV,0.177 ± 0.47
12,PFVDFVVSRNYLRL,0.572 ± 0.61
13,IGGVFALHCRMNIAPGSHTL,2.38 ± 0.14
14,FAWGREVRLEIEY,0.371 ± 0.31
15,MSDRKCKKDSRYLWRDLLPE,0.264 ± 0.46
16,KFNPLLITKFSAWECGLVVG,-1.55 ± 1.9
17,LSGERNVMCSVWACLGRDYR,8.102 ± 0.047
18,YRYSSIF,-0.954 ± 1.4
19,LNALFYLKWALRRWSRKYCE,1.39 ± 0.79
20,RNFLIVLPSVYRGPFI,5.36 ± 0.064
21,PLTGAGFTIEML,-0.132 ± 0.36
22,RVQFRKSTVSISYQNGFCTQ,2.73 ± 0.086

row,Substance,amyloid nucleation score
1,NELWCKADVMS,inactive
2,VKLLYVIISYVRVCCRMDQI,-0.501 ± 0.54
3,DLRSSGFDTELILQVSVQLL,-0.264 ± 0.59
4,ANMYY,-0.279 ± 1.1
5,FDNLWRQYYVIGWILARAFS,-0.983 ± 0.9
6,VNHCMMHEYLGGLLSSVIG,0.773 ± 0.24
7,IICISFWSVKLVDHPMVSNG,0.726 ± 0.75
8,GFFPGHHSFLEATSLVSSLF,1.4 ± 0.63
9,ESMDSWDYVLNISAEMVYCR,0.366 ± 0.54
10,RGEKHVRVYRVMSV,-0.192 ± 0.49
11,SFVSRGCSYCC,-0.489 ± 0.59
12,IGATLAPLTMSLNRSSDESS,0.655 ± 0.64
13,GASAEEIYCQP,-0.513 ± 0.34
14,YDIRL,-0.376 ± 0.65
15,GWMYVSMLFGVG,-0.455 ± 1.7
16,NRPGEINKWSTLIDGVTRFS,0.335 ± 0.41
17,RMPNGTWSIGRHLVD,0.384 ± 0.79
18,FIVDLWCMLFNSILAGCVVV,-0.008 ± 0.21
19,CSENT,-0.875 ± 0.52
20,VTRYVPECGWKDLDLASWYL,1.34 ± 0.58
21,YSPFYYVDI,1.61 ± 0.42
22,LWSYRDFRQVSTELN,-1.15 ± 2.7

row,Substance,amyloid nucleation score
1,QFYVSVFEIYSLLTRKCACR,inactive
2,HHVAVSLDANLNFFTLWLER,3.81 ± 0.12
3,AGLWTLRQMWWFTWGSIDII,inactive
4,VFAICGSTCVGEKGTWPGEG,-0.263 ± 1.4
5,VFVTGLCSEDVTIYSTM,-2.44 ± 2.4
6,FKVNRHLPELHLCKGTEWKL,inactive
7,LVVYRSKQRSYCCM,-0.359 ± 1.9
8,NWLFRQCGSQMMVYVFEFFY,-0.776 ± 0.59
9,RFWSIDRCAWSLMGGILRYG,-0.01 ± 0.43
10,LLIDSPCNWCTRGRSCKFSY,inactive
11,STHSDGVGML,-0.805 ± 1.2
12,MLEESVLHSLLICGANSVFK,0.195 ± 1.1
13,ENVCFLTKM,0.423 ± 0.26
14,WGRMV,0.248 ± 0.74
15,NIHGDGWSYVLNAIGSELD,0.154 ± 0.43
16,SSNWLRY,0.692 ± 0.66
17,SVCTGRYPSRAHGEGASNTC,0.08 ± 0.66
18,NLDYDVESRVTEVWGVLSGC,1.92 ± 0.56
19,LRVMKKRLVDATHNFVPVAN,4.33 ± 0.075
20,DLRKAGGWHRVIC,0.111 ± 0.56
21,YNCYNF,0.97 ± 0.69
